What all share (experiment): SAXS
In data set [1] the target is choline-binding domain of wt-LytA (LytA^CBD) (Streptococcus pneumoniae TIGR4).
Data set [2] has as its target full-length prophage LytA (prophage of Streptococcus pneumoniae Hungary 19A-6).
The data set “SAXS” deals with the molecule itself.

The results in this text go back to PMC3950521 (mBio, 2014).

“choline-binding domain of wt-LytA (LytA^CBD) (domain or fragment)” had a stoichiometry N in data set [1] of 2.

In data set [2], full-length prophage LytA (enzyme) returned a stoichiometry N of 2.

B1: full-length wild-type LytA (N-acetylmuramoyl-L-alanine amidase, major autolysin of Streptococcus pneumoniae) (enzyme, Streptococcus pneumoniae TIGR4, UniProt P06653 1-318, looked up)
chain: MEINVSKLRTDLPQVGVQPYRQVHAHSTGNPHSTVQNEADYHWRKDPELGFFSHIVGNGCIMQVGPVDNGAWDVGGGWNAETYAAVELIESHSTKEEFMTDYRLYIELLRNLADEAGLPKTLDTGSLAGIKTHEYCTNNQPNNHSDHVDPYPYLAKWGISREQFKHDIENGLTIETGWQKNDTGYWYVHSDGSYPKDKFEKINGTWYYFDSSGYMLADRWRKHTDGNWYWFDNSGEMATGWKKIADKWYYFNEEGAMKTGWVKYKDTWYYLDAKEGAMVSNAFIQSADGTGWYYLKPDGTLADKPEFTVEPDGLITVK
Consider B1, for which the “stoichiometry N” value in the data set “SAXS” was 2.

B2: recombinant full-length His-tagged LytA, wt-LytA(N-His6) (enzyme, Streptococcus pneumoniae TIGR4, UniProt P06653 1-318, looked up)
chain: MEINVSKLRTDLPQVGVQPYRQVHAHSTGNPHSTVQNEADYHWRKDPELGFFSHIVGNGCIMQVGPVDNGAWDVGGGWNAETYAAVELIESHSTKEEFMTDYRLYIELLRNLADEAGLPKTLDTGSLAGIKTHEYCTNNQPNNHSDHVDPYPYLAKWGISREQFKHDIENGLTIETGWQKNDTGYWYVHSDGSYPKDKFEKINGTWYYFDSSGYMLADRWRKHTDGNWYWFDNSGEMATGWKKIADKWYYFNEEGAMKTGWVKYKDTWYYLDAKEGAMVSNAFIQSADGTGWYYLKPDGTLADKPEFTVEPDGLITVK
Regarding B2, the “stoichiometry N” value in “SAXS” is 2.
